From the nanobody polyreactivity screen of Harvey et al. (2022)

Experiment: yeast display, Sf9 membrane polyspecificity reagent, FACS + sequencing; frameworks hold sequencing errors
In short: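 Synthetic nanobody libraries on Saccharomyces cerevisiae BJ5465 were galactose-induced for 36–48 hours, stained 1 hour at 4 °C with 10% biotinylated, detergent-solubilized Sf9 membrane reagent and enriched on streptavidin microbeads. FACS then separated cells into low and high (top ~1%) gates by anti-HA (expression) and streptavidin (reagent binding) fluorescence. Genes were colony-PCR amplified, MiSeq 2 × 250 sequenced and CDR-length filtered. A clone's polyreactivity label is that of its gate of origin.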

Sequence	polyreactivity (PSR sort gate)
QVQLVESGGGLVQAGGSLRLSCAASGRTFAYYAMGWYRQAPGKVRELVAAISSGGRTNYADSVKGRFTISRDNAKNTVYLQMNSLKPEDTAVYYCARKAAYQIYNGQYGGFGYGYWGQGTQVTVSS	high polyreactivity
QVHLVESGGVLVQAGGSLRLSCAASGSTFLYYAMGRYRQAPGKEREFVASISGSGGSTNYADSVKGRFTISRDNAKNTVSLQMNSLKPEDTAVYYCAKEYVTEFQGYYDWGQGSQVTVSS	low polyreactivity
QVQLVESGGGLVQAGGSLRLSCAASGRIFYGNAMGWYRQAPGKERELVARISSGSSTNYADSVKGRFTISRDNAKNTVYLQMNSLKPEDTAVYYCAARYTARRQSYGYWGQGTQVTVSS	high polyreactivity
QVQLVESGGGLVQAGGSLRLSCAASGSTFDKYAMGWYRQAPGKERELVATISQSGASTYYADSVKGRFTISRDNAKNTVYFQMNSLKPEDTAVYYCAAAGGEQTKDYYYWGQGTQVTVSS	high polyreactivity
QVQLVESGGGLVQAGGSLRFSCAASGSTFYSYAMGWYRQAPGKERELVAGITGNDGSTYYADSVKGRFTISRDNAKNTVYLQMNSLKPEDTAVYYCNTDASPYLFDYWGQGTQVTVSS	low polyreactivity
QDQLVESGGGLVQAGGSLRISCAASGRIFYYYGMGWYRQAPGKEWELVAAITSDGDTNYADSVKGRLTISRDNAKNTVYLQMNSLKPADTAVYYCAGKWDWGYWRGFQYGFNYWGQGTQVTVSS	low polyreactivity
QVQLVESGGGLVQAGGSLRLSCAASGRTSVINAMGWYRQAPGKERELVATITWSGASTYYADSVKGRFTISRDNAKNTLYLQMNSLKPEVTAVYYCATDSAQYGYDYWGQGTQVTVSS	low polyreactivity
QVQLVESGGGLVQAGGSLRISCAASGLTFADNAMGWYRQAPGKERELVAAISRSGSRTYYADSVKGRFTISRDNAKNTVYLQMNSLKPEDTAVYYCNAVWWYYRVFDYWGQCTQVTVSS	high polyreactivity
QVQLVESGGGLVQAGGSLRLSCAASGSTFSGSVMGWDRPAPGKERELVAAISNRGGRTYYADSVKGRFTISRDNAKNTVYLQMNSLKPEDTAVYYCAARGVVDAGRTNRPYDYWGQGTQVTVSS	low polyreactivity
QVQLVESGGGLVQAGGSLRLSCAASGSIFWPNAMGWYRQAPGKERELVAAISWGTGSTYYADSVKGRFTISRDNAKNTVYLQMNSLKPEDTAVYYCAADGAYLDPYYDYWGQGTQVTVSS	low polyreactivity
QVQLVESGGRLVEAGGSLRISWAASGLIFGYNAMGWYRQAPGKERELVAAISGSGGRTYYADSVKGRFTISRDNAKNTVYLQMNSLKPEDTAVFYCAVADRRGLGYWGQGTQVTVSS	high polyreactivity
QVQLVESGGGLVQAGGSLRLSCAASGFTLSGNAMGWYRQAPGKERELVAAINGSGGSTYYADSVKGRFTISRDNAKNTVYLQMNSLKPEDTAVYYCAAAGSYGQAYSIFTLDSWGPGTQVTVSS	low polyreactivity
QVQLVESGGGLVQAGGSLRLSCAASGFIFVKNAMGWYRQAPGKESELVAVISTRGGRTYYADSVKGRFTISRDNAKNTVYLQMNSLKPEDTAVYYCAAGDQYKTRRNGYGYWGQGTQVTVSS	high polyreactivity
QVQLVESGGGLDQAGGSLRLSCAASGRTFPYNTMGWYRQAPGKERELVASITYTDGSTSYADSVKGRFTISRDNAKNTVYLQMNSLKPEDTSVYYCAADYYAHQDYRFDYWGQGTQVTVSS	low polyreactivity
QVQLVESGGGLVQAGGSLRLSCAASGIIFLVYAMGWYRQAPGKERELVAGISGSATSTNYADSVKGRFTISRDNAKNTVYLQMNSLKPEETAVYYCAASYYGYYVPDNSKYGYWGQGTQVTVSS	low polyreactivity
QVQLVESGGGLVQAGGSLRLRCAATGHIFYYYTMGWSRQAPGKERELVAGITIGGSTNYADSVKGRFTISRDNAKNTVYLQMKSLKPEDTAVYYCNVVKYVYIYSYWEYYYWGQGTQVTVSS	low polyreactivity
QVQLVESGGGLVQAGGSLRLSCAASGRIFGRYAMGWYRPAPGKERELVAAITYRTGRTYYADSVKGRFTISRDNAKNTVYLQMNSLKPEDTAVYYCDAESTSDPIDFEYWGQGTQVTVSS	low polyreactivity
QVQLVESGGGLVQAGGSLRLSCAASGSTFWWYAMGWYRQAPGKEREFVAAITSTGGSTYYADSVKGRFTISHDNAKNTVYLQMNSLKPEDTAVYYCAVRLYLEMDYWGQGTQVTVSS	high polyreactivity
QVQLVESGGGLVQAGGSLRLSCAASGNTFGTYVMGWYRQAPGKERELVAAISQSGGSTDYADSVKGRFTISRYNAKNTVYLQMNSLKPEDTAVYYCATDGHYLYNRKYYRLTRYYYWGQGTQVTVSS	low polyreactivity
QVQHVESGGGLVQAGGSLRLSCAAYGSIFGWYGMGWYRQAPGKERELVAAITRGGSTYYADSVKGRFTISRDNAKNTVYLQMISLKPEDTAVYYCAKRSGQQYGGYGYWGQGTHVTVSS	low polyreactivity
QVQLVESGGGLVQAGGSLRLSCAASGITYDKYAMGWYRQAPGKERELVAAITKSSGSTYYADSVKGRFTISRDNAKNTVYFQMNSLKPEDTAVYYCAAGIVYGYYYWGQGTQVTVSS	high polyreactivity

Sequence	polyreactivity (PSR sort gate)
QVQLVESGGGLVQAGGSLRLSCAASGYIFGHYTMGWYRQAPGKERELVAGISSGGITYYADSVKGRFTISRDNAKNSDYLQMNSLKPEDTAVYYCAAYWRRRLDYYYWGQGTQVTVSS	high polyreactivity
QVQLVESGGGLVQAGGSHRLSCAASGRSFKYYAMGWYRQAPGKERELVARISPSSGNTYYADSVKGRFTISRDNAKNTVYLQMNSLKPEDTGVYVCATVPHYNGFNYWGQGTQVTVSS	high polyreactivity
QVQLVESGGGLVQAGGSLRLSCAASGHTFYYYTMGWYRQAPGKERELVASIRNGGNTNYADSVKGRFTISRDTAKNTVYLQMHSLKPEDTAVYYCAAVFGWSYITAYDWGQGTQVTVSS	high polyreactivity
QVPLVESVGGLVQAGGSLRLSCAASGTIFFGYAMGSYRQAPGKERDLVASISSGDTTYYADSVKGRFTISRDNAKNTVYLQMNSLKPEDTAVYYCAAREGQLWEDGDYWGQGTQVTVSS	low polyreactivity
QVQLVESGGGLVQAGGSLRLICAASGSTFSINAMGRYRQAPGKERELVAAITTSVDSTYYADSVKGRFTISRDNAKNTVYLQMNSLIPEDTAVYYCAVAFVQFNQYDYWGQGTQVTVSS	low polyreactivity
QVQLVESGGGLVQAGGSLRLSCAASGSTFAPNAMGWYRQAPGKERELVAAISSGSSTYYADSVKGRFTISRDNAKNTVYLQMNSLKQEVNAVYYCAARSTYYSRKQLVDYWGQGTQVTVSS	high polyreactivity
QVQLVESGGGLVQAGGSLRLSCAASGRTFGRYVMGWYRQAPGKERELVAAIRSRGGSTYYADSVKGRFTISRDNAKNTVYLQMNSLKPEDTAVYYCNAVDRKPYRTYDYWGQGTQVTVSS	high polyreactivity
QVQLVESGGGLVQAGGSLRLSCAASGRNFPTKAMGWYREAPGTERELVAAITRSGSTYYADSVKGRFTISRDNAKNTVYLQMNSLKPEDTAVYYCAAYAYIFLDWGGYPYYLYEYDDWGQGTQVTVSS	low polyreactivity
QVQLVESGGGIVQAGGSLRLICAASGSIFDVNALGWYSQAPGKERELVAAITWSGGNTYYADSVKGRFTISRDNAKNNFYLQMYSLKPEDTAVYYCNVYVSAGEEDEYWGQVTQVTVSS	low polyreactivity
QVQLVESGGGLVHAGGSLRLSCAASGSIFYRYAKGWYIQAPGKERDLVAAITYSGGRTYYADSVKGRFTISRDNAKNSVYLKMNILKPEDTAVYYCAAEKQSYGSPKGYDYWGQGTQVTVSS	low polyreactivity
QVQLVESGGGLVQAGGSLRLSCAASAITLDGNAMGWYIQAPGKERELVAAITSGGGTNYADSVKGRFTISRDNAKNTVYLEMNSLKQEDTAVYYCAETGRLLTSNYWGLGTQVTVSS	low polyreactivity
QVQLVESGGGLVQAGGSLRLSCAASGSIFTYYAMGWYRQAPGKERELVASINWSGGRTYYADSVKGRFTISRDNAKNTVYLQMNSLKPEDTAVYYCNARSAYGTGNQRGRRYYWGQGTQVTVSS	high polyreactivity
QVQLVESGGGLVQAGGRLRFSCAASGSNFPVYAMGWYRHAPGKERELVADITYTTGSTYYADSVKGRFTISRDNAKNTVYLQMHSLKPEDTGVYYCNARDYTWYLHLGYSTLYWGQGTQVTVSS	low polyreactivity
QVQLVESGGGLVQAGGSLRLSCAASGLTFYQYAMGWSRQAPGKERELVAAISKSAGSTYYADSVKGRFTISRDNAKNTVYLQMNSLKPEDTAVYYCAARVLRLRYDYWGQGTQVTVSS	high polyreactivity
QVQLVESGGGLVQAGGSLSLSCAASGSTFGLNASGWYRQAPGKEREFVAAITSGGTYYADSVKGRFTISRDNAKYTVYLHMYSLKPEDTSVYYCAADGTWSIYGGMYYWGQGTQVTVSS	low polyreactivity
QVQLVESGRGLVQAGCSLRLSCAASGSILHYNAMGWYRQAPGKERELVASITNSGRTYYADSVKGRFTISRDNAKNTDYLHMNSLKPEDTAVYYCAAQGTWRYFGHRHNYWGQGTQVTVSS	high polyreactivity
QVQLVESGGGLVQAGGSLRLSCAASGITLLVNAMGWYRQAPGKERELVAAISGSSGGSTYYADSVKGRFTISRDNAKNTVYLQMNSLKPEDTAVYYCAKRKWYWGLSYIYDSWGQGTQVTVSS	low polyreactivity
QVQLVESGGGLVQAGGSLRLSCAASGFIFNYYGMGWYRQAPGKERELVATISGSGGSTYYADSVKGRFTISRDNAKNTVYLQMNSLKPEDTAVYYCNRYPPVHNVGEAYGTLHGYYWGQGTQVTVSS	low polyreactivity
QVQHVESGGGLVQAGGSLRLSCAASGFTYRRYAMGWYRQSPGKERELVAAISYRGGTYYADSVKGRFTISRDKAKNTLYLQMTSLIPEDTAVYYCNARYRGKYSSYGYWGQGTQVTVSS	high polyreactivity
QVQLVESGGGLVQAGGSLRLSCAASGLTFYHYAMGWYRQAPGIERELVAAISYSGSRTYYADSVKGRFTISRDTAKNTVYLQMNSLKPEVTAVYYCAAKRTKEYDYWGQGTQVTVSS	high polyreactivity
